The source of these data is patent publication US20150328292A1, “CASPASE POLYPEPTIDES HAVING MODIFIED ACTIVITY AND USES THEREOF” (BELLICUM PHARMACEUTICALS, INC., priority 2014, published 2015).

Positions count from the first letter of the chain named. Numbers in names are those of the source. Entries after “also recorded” stand apart in the source; their conditions may differ. Where a SMILES comes first, the peptide text is derived from it. The star is where a group is joined. Cbz = O=C(OCc1ccccc1)*; CH2F = FC*

Assay [1] deals with F-Casp9M.I.GFPhigh-transduced T cells. As to the kind of experiment: annexin-V/7-AAD staining of CID-treated transduced CTLs. The conditions noted are these: 100 μM for 1 hour prior to adding CID. In kind it is cell-based, human. The protocol: CID (AP20187; ARIAD Pharmaceuticals) at indicated concentrations was added to transfected 293T cells or transduced CTLs. Adherent and nonadherent cells were harvested and washed with annexin binding buffer (BD Pharmingen, San Jose, Calif.). Cells were stained with annexin-V and 7-amino-actinomycin D (7-AAD) for 15 minutes according to the manufacturer's instructions (BD Pharmingen). Within 1 hour after staining, cells were analyzed by flow cytometry using CellQuest software (Becton Dickinson).

The subject of another assay is HEK293T/16 cells. As to the kind of experiment: SEAP reporter-based surrogate killing assay (basal activity and AP1903 IC50). In kind it is cell-based, human. Particulars: for relative SEAP activity Units (basal activity): no AP1903, higher SEAP = lower basal activity; for basal activity / basal signaling (in words): AP1903-independent SEAP activity, vs wild type. In a few lines:
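HEK293T/16 cells transiently co-transfected with iCasp9 mutant plasmid (800 ng–2 μg) and SRα-driven SEAP plasmid (500 ng) per million cells. Supernatants heat-treated 65 °C, 45 min, then SEAP read by 4-MUP hydrolysis fluorescence (ex/em 355/460 nm). Lower SEAP signal indicates higher iCasp9 activity, i.e. cell killing.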

A further assay relates to PG13 packaging cells. The format is cell-based.
The subject of a further assay is Activated T cells. As to the kind of experiment: Control of T cell proliferation in vitro over 10 days with AP1903. In kind it is cell-based, human. The conditions noted are these: AP1903 on days 0 and 4, 10 days.

For `COC(=O)C[C@H](NC(=O)[C@H](C)NC(=O)[C@@H](NC(=O)OCc1ccccc1)C(C)C)C(=O)CF` [zVAD-fmk] (Cbz-Val-Ala-Asp(OMe)-CH2F), the “effect on CID-induced apoptosis” value in assay [1] is recorded as “inhibited”.

B1: D330A: ΔCasp9 (res. 135-416) D330A, SEQ ID NO: 24 (protein)
chain: GFGDVGALESLRGNADLAYILSMEPCGHCLIINNVNFCRESGLRTRTGSNIDCEKLRRRFSSLHFMVEVKGDLTAKKMVLALLELARQDHGALDCCVVVILSHGCQASHLQFPGAVYGTDGCPVSVEKIVNIFNGTSCPSLGGKPKLFFIQACGGEQKDHGFEVASTSPEDESPGSNPEPDATPFQEGLRTFDQLAAISSLPTPSDIFVSYSTFPGFVSWRDPKSGSWYVETLDDIFEQWAHSEDLQSLLLRVANAVSVKGIYKQMPGCFNFLRKKLFFKTS
As to B1, the “relative SEAP activity Units (basal activity)” value with HEK293T/16 cells (1 μg iCasp9 per million cells) was determined as 148928. Moreover, in the assay with HEK293T/16 cells (2 μg iCasp9 per million cells), the “relative SEAP activity Units (basal activity)” value was found to be 136863. The “basal activity / basal signaling (in words)” value with HEK293T/16 cells is recorded as “low to undetectable basal activity; also recorded: lowered basal activity, but not as low as in N405Q; also recorded: less basal activity than wild type caspase-9; also recorded: lower basal activity; also recorded: lower basal signaling compared to the wild-type caspase-9; also recorded: statistically lower basal signaling”. Further, in the assay on PG13 packaging cells, the “CD19 mean fluorescence intensity (MFI) of transduced PG13 cells” value is “enhanced CD19 mean fluorescence intensity” and the viral titers result is recorded as “higher viral titers”. In addition, in the assay on Activated T cells, the “T cell proliferation and survival” value is recorded as “halted T cell proliferation”.

B2: F404Y: chimeric modified caspase-9 polypeptide variant (protein)
chain: VDGFGDVGALESLRGNADLAYILSMEPCGHCLIINNVNFCRESGLRTRTGSNIDCEKLRRRFSSLHFMVEVKGDLTAKKMVLALLELARQDHGALDCCVVVILSHGCQASHLQFPGAVYGTDGCPVSVEKIVNIFNGTSCPSLGGKPKLFFIQACGGEQKDHGFEVASTSPEDESPGSNPEPDATPFQEGLRTFDQLDAISSLPTPSDIFVSYSTFPGFVSWRDPKSGSWYVETLDDIFEQWAHSEDLQSLLLRVANAVSVKGIYKQMPGCYNFLRKKLFFKTSASRA
Consider B2, for which, in the assay with HEK293T/16 cells, the “basal activity / basal signaling (in words)” value is on record as “lower basal signaling than WT”. Besides, the “T cell proliferation and survival” value with Activated T cells was “indistinguishable from wild type caspase-9 polypeptide or D330A”.

B3: S196D: chimeric modified caspase-9 polypeptide variant (protein)
chain: B2 chain with S64D, Y272F
For B3, the “basal activity / basal signaling (in words)” value in the assay with HEK293T/16 cells was “lower basal activity”.

B4: S183A: chimeric modified caspase-9 polypeptide variant (protein)
chain: B2 chain with S51A, Y272F
For B4, the “basal activity / basal signaling (in words)” value in the assay on HEK293T/16 cells is recorded as “lower basal activity”.

B5: F406T: chimeric modified caspase-9 polypeptide variant (protein)
chain: B2 chain with Y272F, F274T
Take B5: the “basal activity / basal signaling (in words)” value with HEK293T/16 cells is “lower basal signaling than WT”.

B6: F404W: chimeric modified caspase-9 polypeptide variant (protein)
chain: B2 chain with Y272W
As to B6, the “basal activity / basal signaling (in words)” value with HEK293T/16 cells is on record as “lower basal signaling than WT”.
